Patent US9527898B2, “Oxyntomodulin derivatives and pharmaceutical composition for treating obesity comprising the same” (Hanmi Science Co., Ltd., dated 2016)
Non-standard residues stand in square brackets, D forms with d. No end group written: not given here. *: point of attachment. Acetyl(2-(4-imidazolyl)) = O=C(Cc1c[nH]cn1)*; Aib = CC(C)(N)C(=O)O

B1: oxyntomodulin derivative of SEQ ID NO. 6 (peptide)
peptide: {Acetyl(2-(4-imidazolyl))}-HGEGTFTSDLSRQMEEEAVRLFIEWAAHSQGTFTSDYSKYLD
B2: oxyntomodulin derivative of SEQ ID NO. 11 (peptide)
peptide: HGEGTFTSDLSRQMEEEAVRLFIEWAAHSQGTFTSDYSRYLDK
modifications: not fully specified (residue 1, N-terminus); also: N-terminal CA (4-imidazoacetyl), whether it replaces His1 not given here
B3: oxyntomodulin derivative of SEQ ID NO. 13 (peptide)
peptide: HSQGTFTSDYSRYLDEEAVELFIEWLMNTK
B4: oxyntomodulin derivative of SEQ ID NO. 17 (peptide)
peptide: HSQGTFTSDYSRYLDEEAVRLFIEWIRNTKRNRNNIA
modifications: not fully specified (residue 1, N-terminus); also: N-terminal CA (4-imidazoacetyl), whether it replaces His1 not given here
B5: oxyntomodulin derivative of SEQ ID NO. 23 (peptide)
peptide: H[Aib]QGTFTSDYSKYLDEKRAKEFVCWLMNT
B6: oxyntomodulin derivative of SEQ ID NO. 28 (peptide)
peptide: H[Aib]QGTFTSDYSKYLDEKRAKEFVQWLMNT
B7: oxyntomodulin derivative of SEQ ID NO. 30 (peptide)
peptide: H[Aib]QGTFTSDYAKYLDEKRAKEFVQWLMNTC
B8: oxyntomodulin derivative of SEQ ID NO. 31 (peptide)
peptide: Y[Aib]QGTFTSDYSKYLDEKRAKEFVQWLMNTC
B9: oxyntomodulin derivative of SEQ ID NO. 24 (peptide)
peptide: H[Aib]QGTFTSDYSKYLDEKRAKEFVQWLMNTC
modifications: also: possible ring formation not assignable from text
B10: oxyntomodulin derivative of SEQ ID NO. 25 (peptide)
peptide: H[Aib]QGTFTSDYSKYLDEKRAKEFVQWLMNTC
modifications: also: possible ring formation not assignable from text

What follows are binders tested against human glucagon receptor (human, UniProt P47871) (assay: cell-based or functional assay).
B1 was tested, and the “EC50 (nM), cAMP, CHO/GCGR” value was > 1000 nM.
For B2, the “EC50 (nM), cAMP, CHO/GCGR” value was > 1000 nM.
With B3 the “EC50 (nM), cAMP, CHO/GCGR” value was > 1000 nM.
For B4, the “EC50 (nM), cAMP, CHO/GCGR” value was > 1000 nM.
With B5 the “EC50 (nM), cAMP, CHO/GCGR” value was 5.8 nM.
In the case of B6, the “EC50 (nM), cAMP, CHO/GCGR” value is reported as 0.3 nM.
For B7, the “EC50 (nM), cAMP, CHO/GCGR” value was 80.2 nM.
With B8 the “EC50 (nM), cAMP, CHO/GCGR” value was 1 nM.

The binders below were run against human GLP-1 receptor (human, UniProt P43220) (assay: cell-based or functional assay).
With B2 the “EC50 (nM), cAMP, CHO/GLP-1R” value was > 1000 nM.
B3 was tested, and the “EC50 (nM), cAMP, CHO/GLP-1R” value was > 1000 nM.
B5 was tested, and the “EC50 (nM), cAMP, CHO/GLP-1R” value was 2.46 nM.
For B9, the “EC50 (nM), cAMP, CHO/GLP-1R” value was 1.43 nM.
In the case of B10, the “EC50 (nM), cAMP, CHO/GLP-1R” value is reported as 1.9 nM.
In the case of B7, the “EC50 (nM), cAMP, CHO/GLP-1R” value is reported as 2.2 nM.
With B8 the “EC50 (nM), cAMP, CHO/GLP-1R” value was 12.5 nM.
